Results reported in paper PMC3730723, “A Network of HMG-box Transcription Factors Regulates Sexual Cycle in the Fungus Podospora anserina”.

T1: PaHMG5 (HMG5His) (Podospora anserina, UniProt B2AM17 1-559)
T1 sequence: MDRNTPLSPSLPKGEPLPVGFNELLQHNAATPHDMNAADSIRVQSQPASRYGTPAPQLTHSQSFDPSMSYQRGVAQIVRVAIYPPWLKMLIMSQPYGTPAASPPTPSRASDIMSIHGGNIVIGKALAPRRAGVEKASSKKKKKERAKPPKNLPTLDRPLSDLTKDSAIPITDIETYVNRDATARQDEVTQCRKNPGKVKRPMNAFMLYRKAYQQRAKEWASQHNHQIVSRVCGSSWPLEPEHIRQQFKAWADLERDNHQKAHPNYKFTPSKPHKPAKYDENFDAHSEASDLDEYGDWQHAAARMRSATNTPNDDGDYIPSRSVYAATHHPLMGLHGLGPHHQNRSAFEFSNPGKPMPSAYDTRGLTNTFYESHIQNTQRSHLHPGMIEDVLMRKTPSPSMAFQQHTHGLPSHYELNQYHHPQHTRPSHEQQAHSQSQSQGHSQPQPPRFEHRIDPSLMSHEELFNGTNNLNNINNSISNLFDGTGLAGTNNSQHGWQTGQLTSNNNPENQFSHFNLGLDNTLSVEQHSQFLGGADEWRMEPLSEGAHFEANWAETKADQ

B1: KEF1 (PaHMG9) probe (dsDNA)
DNA 1: GATCGTAGCTATAGACAAAGAAAGCAACAGATAG
DNA 2: GCTATCTGTTGCTTTCTTTGTCTATAGCTACGAT
B2: FPR1 probe (dsDNA)
DNA 1: GGTGAAGGTGAATAACAAAGAAATACACTGACGG
DNA 2: GCCGTCAGTGTATTTCTTTGTTATTCACCTTCAC
B3: FMR1 probe (dsDNA)
DNA 1: GTGCAGGATAGCCAACAAAGAAATGACTGCCACG
DNA 2: GCGTGGCAGTCATTTCTTTGTTGGCTATCCTGCA
B4: PaHMG5 probe (dsDNA)
DNA 1: GTAGAGAAGCCGGAACAAAGAAAGGAACAAGCAG
DNA 2: GCTGCTTGTTCCTTTCTTTGTTCCGGCTTCTCTA
B5: mtHMG1 probe (dsDNA)
DNA 1: GGAGGGCATCTTCAACAAAGAATCTCGGCAAATA
DNA 2: GTATTTGCCGAGATTCTTTGTTGAAGATGCCCTC
B6: PaHMG8 probe (dsDNA)
DNA 1: GTGCAAACGCGGGGACAAAGAAAAAGTCTGGTGC
DNA 2: GGCACCAGACTTTTTCTTTGTCCCCGCGTTTGCA

Target: T1, PaHMG5 (HMG5His)
Assay: EMSA; 20 mM Tris pH 9.0, 500 mM NaCl, 5 mM beta-mercaptoethanol, 5 mM MgCl2, 5% glycerol, 1.25 ug poly(dI-dC), 11 ul, on ice; 6% gel in 0.25x TBE
Details: protein: recombinant; tags: C-terminal His6; label: 5'-32P; 33 bp duplex, 1 nt 5' G overhang on each strand

Question: Does B1 bind?
Answer: binds

Question: Does B2 bind?
Answer: binds

Question: Does B3 bind?
Answer: binds

Question: Does B4 bind?
Answer: binds

Question: Does B5 bind?
Answer: binds

Question: Does B6 bind?
Answer: binds
